{
  "source": "paper PMC9664404",
  "about": "“DNA-mediated proteolysis by neutrophil elastase enhances binding activities of the HMGB1 protein” (The Journal of Biological Chemistry, 2022)",
  "binders": {"B1": {"name": "full-length (FL) disulfide HMGB1 protein (high-mobility-group-box-1, oxidized) (natural protein, UniProt P09429 1-215, looked up)", "chain": "MGKGDPKKPRGKMSSYAFFVQTCREEHKKKHPDASVNFSEFSKKCSERWKTMSAKEKGKFEDMAKADKARYEREMKTYIPPKGETKKKFKDPNAPKRPPSAFFLFCSEYRPKIKGEHPGLSIGDVAKKLGEMWNNTAADDKQPYEKKAAKLKEKYEKDIAAYRAKGKPDAAKKGVVKAEKSKKKKEEEEDEEDEEDEEEEEDEEDEDEEEDDDDE", "modifications": "disulfide bond between Cys23 and Cys45", "notes": "215 residues (D/E repeats are residues 186-215); also called FL HMGB1; intact disulfide HMGB1; source: E. coli BL21(DE3), purified (SP-FF cation exchange, Resource-Q anion exchange, Sephacryl S-100 HR SEC)"}, "B2": {"name": "Δ39 variant of disulfide HMGB1 (lacks the C-terminal 39 residues) (domain or fragment, UniProt P09429 1-176, looked up)", "chain": "MGKGDPKKPRGKMSSYAFFVQTCREEHKKKHPDASVNFSEFSKKCSERWKTMSAKEKGKFEDMAKADKARYEREMKTYIPPKGETKKKFKDPNAPKRPPSAFFLFCSEYRPKIKGEHPGLSIGDVAKKLGEMWNNTAADDKQPYEKKAAKLKEKYEKDIAAYRAKGKPDAAKKGVV", "modifications": "disulfide bond between Cys23 and Cys45", "notes": "HMGB1 of GenBank CAG33144.1 with a stop codon at K177; lacks residues 177-215, ends at V176; also called Δ39 product; source: E. coli BL21(DE3), purified (SP-FF cation exchange, Resource S cation exchange, Sephacryl S-100 HR SEC)"}, "B3": {"name": "Holliday junction J1 (J1A/J1B/J1C/J1D) (structured_DNA)", "DNA 1": "CGCAATCCTGAGCACG", "DNA 2": "CGTGCTCACCGAATGC", "DNA 3": "GCATTCGGACTATGGC", "DNA 4": "GCCATAGTGGATTGCG"}},
  "key": {"TLR4•MD-2 complex": {"target": "T1, TLR4•MD-2 complex (UniProt O00206 24-631; Q9Y6Y9 19-160)", "T1 construct": "toll-like receptor 4 (TLR4) of the bought TLR4•MD-2 complex; MD-2 of the bought TLR4•MD-2 complex; also called toll-like receptor 4 • MD-2 complex; source: bought: R&D Systems (catalog no. 3146-TM-050), lyophilized", "T1 sequence (O00206 24-631, chain 1 of 2)": "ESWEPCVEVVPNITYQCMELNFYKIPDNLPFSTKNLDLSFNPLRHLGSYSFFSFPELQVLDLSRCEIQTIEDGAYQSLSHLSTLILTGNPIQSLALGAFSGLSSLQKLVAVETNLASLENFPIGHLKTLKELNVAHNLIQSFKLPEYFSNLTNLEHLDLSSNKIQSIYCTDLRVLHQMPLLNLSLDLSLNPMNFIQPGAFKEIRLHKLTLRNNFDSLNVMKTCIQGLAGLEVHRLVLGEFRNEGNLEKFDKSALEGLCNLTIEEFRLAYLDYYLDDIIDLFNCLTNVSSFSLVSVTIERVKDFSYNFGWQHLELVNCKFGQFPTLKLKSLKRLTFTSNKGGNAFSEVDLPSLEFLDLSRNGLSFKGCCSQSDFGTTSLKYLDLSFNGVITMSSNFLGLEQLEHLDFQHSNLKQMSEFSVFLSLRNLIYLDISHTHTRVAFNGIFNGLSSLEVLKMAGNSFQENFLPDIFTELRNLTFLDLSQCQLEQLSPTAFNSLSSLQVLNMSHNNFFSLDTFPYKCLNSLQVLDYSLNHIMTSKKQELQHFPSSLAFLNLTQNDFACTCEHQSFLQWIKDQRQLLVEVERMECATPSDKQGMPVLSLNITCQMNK", "T1 sequence (Q9Y6Y9 19-160, chain 2 of 2)": "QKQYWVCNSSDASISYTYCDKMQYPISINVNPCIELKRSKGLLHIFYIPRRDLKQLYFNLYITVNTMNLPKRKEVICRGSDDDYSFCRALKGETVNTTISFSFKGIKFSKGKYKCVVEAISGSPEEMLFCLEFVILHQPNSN", "test": "SPR; TLR4•MD-2 complex immobilised on a CM5 chip by amine coupling (1200 RU); HMGB1 proteins injected at 30 μl/min, 25 °C; 10 mM Hepes (pH 7.4), 150 mM NaCl, 3 mM EDTA, 0.005% v/v Tween-20; 1:1 binding model; Biacore T-100; three independent experiments", "conditions": "both partners purified"}, "[1]": {"target": "T2, HMGB1 Δ39 (disulfide form) (UniProt P09429 1-176, del177-215)", "test": "fluorescence anisotropy; 200 mM NaCl; value only in figure; affinity higher than full-length; 10 mM potassium phosphate pH 7.4, 200 mM NaCl (32G) or 150 mM NaCl (J1), 4 nM FAM-DNA, 25 °C", "conditions": "protein: recombinant; label: 5'-FAM; G-quadruplex"}, "[2]": {"target": "T3, HMGB1 full-length (disulfide form) (UniProt P09429 1-215)", "test": "fluorescence anisotropy; 200 mM NaCl; value only in figure; affinity lower than Δ39; 10 mM potassium phosphate pH 7.4, 200 mM NaCl (32G) or 150 mM NaCl (J1), 4 nM FAM-DNA, 25 °C", "conditions": "protein: recombinant; label: 5'-FAM; G-quadruplex"}, "[3]": {"target": "HMGB1 Δ40 (disulfide form) (UniProt P09429 1-175, del176-215)", "test": "fluorescence anisotropy; 200 mM NaCl; value only in figure; as strong as Δ39; 10 mM potassium phosphate pH 7.4, 200 mM NaCl (32G) or 150 mM NaCl (J1), 4 nM FAM-DNA, 25 °C", "conditions": "protein: recombinant; label: 5'-FAM; G-quadruplex"}, "[4]": {"target": "HMGB1 Δ44 (disulfide form) (UniProt P09429 1-171, del172-215)", "test": "fluorescence anisotropy; 200 mM NaCl; value only in figure; as strong as Δ39; 10 mM potassium phosphate pH 7.4, 200 mM NaCl (32G) or 150 mM NaCl (J1), 4 nM FAM-DNA, 25 °C", "conditions": "protein: recombinant; label: 5'-FAM; G-quadruplex"}, "[5]": {"target": "T3, HMGB1 full-length (disulfide form)", "test": "fluorescence anisotropy; 150 mM NaCl; value only in figure; affinity lower than Δ39; 10 mM potassium phosphate pH 7.4, 200 mM NaCl (32G) or 150 mM NaCl (J1), 4 nM FAM-DNA, 25 °C", "conditions": "protein: recombinant; label: 5'-FAM on J1A; four-way junction of 4 x 16-mer strands"}, "[6]": {"target": "T2, HMGB1 Δ39 (disulfide form)", "test": "fluorescence anisotropy; 150 mM NaCl; value only in figure; affinity higher than full-length; 10 mM potassium phosphate pH 7.4, 200 mM NaCl (32G) or 150 mM NaCl (J1), 4 nM FAM-DNA, 25 °C", "conditions": "protein: recombinant; label: 5'-FAM on J1A; four-way junction of 4 x 16-mer strands"}},
  "data": [
    {"binder": "B1", "values": [
      {"measurement": "Kd", "setting": "TLR4•MD-2 complex", "result": 367, "unit": "nM"}
    ]},
    {"binder": "B2", "values": [
      {"measurement": "Kd", "setting": "TLR4•MD-2 complex", "result": 25, "unit": "nM"}
    ]},
    {"binder": "AGGGCGGTGTGGGAAGAGGGAAGAGGGGGAGG (structured_DNA)", "note": "[FAM-32G G-quadruplex]", "values": [
      {"measurement": "binding result", "setting": "[1]", "result": "binds"},
      {"measurement": "binding result", "setting": "[2]", "result": "binds"},
      {"measurement": "binding result", "setting": "[3]", "result": "binds"},
      {"measurement": "binding result", "setting": "[4]", "result": "binds"}
    ]},
    {"binder": "B3", "values": [
      {"measurement": "binding result", "setting": "[5]", "result": "binds"},
      {"measurement": "binding result", "setting": "[6]", "result": "binds"}
    ]}
  ]
}
